Source: publication PMC10397247
Read-outs that look alike come from different tables or passages of the source.

T1: 4H1877-AA
T1 chain: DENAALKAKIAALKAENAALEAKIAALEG

T2: 4H171-AA
T2 chain: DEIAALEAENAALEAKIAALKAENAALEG

T3: 4H1310-AA
T3 chain: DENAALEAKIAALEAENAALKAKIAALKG

T4: 4H2649-AA
T4 chain: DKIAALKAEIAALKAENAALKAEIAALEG

T5: 4H3588-AA
T5 chain: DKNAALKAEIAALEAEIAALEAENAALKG

T6: 4H3009-AA
T6 chain: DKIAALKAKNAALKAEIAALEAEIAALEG

T7: 4H3865-AA
T7 chain: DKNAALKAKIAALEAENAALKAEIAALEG

T8: 4H1478-AA
T8 chain: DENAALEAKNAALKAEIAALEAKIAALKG

T9: 4H1845-AA
T9 chain: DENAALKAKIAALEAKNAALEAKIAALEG

T10: 4H2725-AA
T10 chain: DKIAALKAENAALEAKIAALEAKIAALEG

T11: 4H1629-AA
T11 chain: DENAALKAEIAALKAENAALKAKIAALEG

T12: 4H536-AA
T12 chain: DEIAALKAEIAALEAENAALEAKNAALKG

T13: 4H1864-AA
T13 chain: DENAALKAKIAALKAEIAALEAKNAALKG

T14: 4H3697-AA
T14 chain: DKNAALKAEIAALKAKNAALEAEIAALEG

T15: 4H2109-AA
T15 chain: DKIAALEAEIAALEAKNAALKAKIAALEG

T16: 4H3162-AA
T16 chain: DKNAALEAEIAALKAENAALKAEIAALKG

T17: 4H2907-AA
T17 chain: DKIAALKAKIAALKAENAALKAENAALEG

T18: 4H3056-AA
T18 chain: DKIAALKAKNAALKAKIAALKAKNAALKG


Columns and labels:
Test in all cases: two-hybrid library CCmax;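 note: natural log of median RNA to DNA barcode read ratio; higher means stronger binding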
4H1877-AA = biological target: T1, 4H1877-AA; settings: mean of both orientations
4H171-AA = biological target: T2, 4H171-AA; settings: mean of both orientations
4H1310-AA = biological target: T3, 4H1310-AA
4H2649-AA = biological target: T4, 4H2649-AA; settings: mean of both orientations
4H3588-AA = biological target: T5, 4H3588-AA
4H3009-AA = biological target: T6, 4H3009-AA; settings: mean of both orientations
4H3865-AA = biological target: T7, 4H3865-AA; settings: mean of both orientations
4H1478-AA = biological target: T8, 4H1478-AA; settings: mean of both orientations
4H1845-AA = biological target: T9, 4H1845-AA; settings: mean of both orientations
4H2725-AA = biological target: T10, 4H2725-AA; settings: mean of both orientations
4H1629-AA = biological target: T11, 4H1629-AA; settings: mean of both orientations
4H536-AA = biological target: T12, 4H536-AA; settings: mean of both orientations
4H1864-AA = biological target: T13, 4H1864-AA; settings: mean of both orientations
4H3697-AA = biological target: T14, 4H3697-AA; settings: mean of both orientations
4H2109-AA = biological target: T15, 4H2109-AA
4H3162-AA = biological target: T16, 4H3162-AA; settings: mean of both orientations
4H2907-AA = biological target: T17, 4H2907-AA; settings: mean of both orientations
4H3056-AA = biological target: T18, 4H3056-AA; settings: mean of both orientations

interaction score (4H1877-AA)	interaction score (4H171-AA)	interaction score (4H2649-AA)	interaction score (4H3009-AA)	interaction score (4H3865-AA)	interaction score (4H1478-AA)	interaction score (4H1845-AA)	interaction score (4H2725-AA)	interaction score (4H1629-AA)	interaction score (4H536-AA)	interaction score (4H1864-AA)	interaction score (4H3697-AA)	interaction score (4H3162-AA)	interaction score (4H2907-AA)	interaction score (4H3056-AA)	Binder	further results
1.48	-1.36	0.913	-0.415	0.444	-0.804	-0.689	-1.15	-1.15	-1.1	-1.38	2.08	-1.46	-1.24	-1.15	DENAALEAEIAALKAKNAALEAKIAALKG [4H1142-AA]	interaction score (4H1310-AA; mean of both orientations): -1.26; interaction score (4H3588-AA): -1.17; interaction score (4H2109-AA): 0.249
1.5	-0.8	1.94	0.0502	2.2	-1.2	-0.784	-1.12	-0.348	-1.27	-1.48	0.439	-0.508	1.34	-1.47	DENAALEAKIAALEAENAALKAKIAALKG [4H1310-AA]	interaction score (4H1310-AA): 1.62; interaction score (4H3588-AA; mean of both orientations): -1.22; interaction score (4H2109-AA; mean of both orientations): 0.409
